Where a chain is given by its changes, count along the chain named.
B1: CoDAH design C1 VH/C4 Vκ (antibody, V domains shown)
VH: QVQLQQSGPGLVKPSQTLSLTCTVSGFSLTNYGVHWVRQSPGKGLEWLGVIWSGGNTDYNTPFTSRLTISKDTSKNQVSLKLSSVTSNDTAVYYCARALTYYDYEFAYWGQGTLVTVSA
VL: DIVLTQSPVILSVSPGERVTFSCRASQSIGTNIHWYQQKPDQSPKLLIKYASESISGVPSRFSGSGSGTDFTLTINSVESEDIADYYCQQNNNWPTTFGQGTKLELKR
notes: Cross pair; Measured as full length IgG
B2: CoDAH design C5 VH/C1 Vκ (antibody, V domains shown)
VH: QVQLQQSGPGLVKPSETLSITCTVSGFSLTNYGVHWVRQSPGKGLEWLGVIWSGGNTDYNTPFTSRLTINKDNSKSQVFFKMNSLQSNDTAVYYCARALTYYDYEFAYWGQGTLVTVSA
VL: B1 VL with V9D, I10F, L11Q, S14T, G16K, R18K, F21I, S22T, Q100A
notes: as for B1
B3: CoDAH design C4 VH/C2 Vκ (antibody, V domains shown)
VH: B2 VH with E16Q, I20L, N70S
VL: B1 VL with I10F, S14T, R18K, F21I, S22T, Q100A
notes: as for B1
B4: CoDAH design C5 VH/C3 Vκ (antibody, V domains shown)
VH: B2 VH
VL: B1 VL with V3L, Q100A
notes: as for B1
B5: CoDAH design C5 VH/C5 Vκ (antibody, V domains shown)
VH: B2 VH
VL: B1 VL with D1E, P40T, K45R, V58I
notes: Pareto optimal design; Measured as full length IgG
B6: CoDAH design C5 VH/C2 Vκ (antibody, V domains shown)
VH: B2 VH
VL: B1 VL with I10F, S14T, R18K, F21I, S22T, Q100A
notes: as for B1
B7: CoDAH design C4 VH/C1 Vκ (antibody, V domains shown)
VH: B2 VH with E16Q, I20L, N70S
VL: B1 VL with V9D, I10F, L11Q, S14T, G16K, R18K, F21I, S22T, Q100A
notes: as for B1
B8: CoDAH design C1 VH/C3 Vκ (antibody, V domains shown)
VH: B1 VH
VL: B1 VL with V3L, Q100A
notes: as for B1
B9: CoDAH design C4 VH/C4 Vκ (antibody, V domains shown)
VH: B2 VH with E16Q, I20L, N70S
VL: B1 VL
notes: as for B5
B10: CoDAH design C2 VH/C4 Vκ (antibody, V domains shown)
VH: B1 VH with K71V
VL: B1 VL
notes: as for B1
B11: CoDAH design C1 VH/C1 Vκ (antibody, V domains shown)
VH: B1 VH
VL: B1 VL with V9D, I10F, L11Q, S14T, G16K, R18K, F21I, S22T, Q100A
notes: as for B5
B12: CoDAH design C3 VH/C2 Vκ (antibody, V domains shown)
VH: B1 VH with Q16E, K71V
VL: B1 VL with I10F, S14T, R18K, F21I, S22T, Q100A
notes: as for B1
B13: CoDAH design C4 VH/C5 Vκ (antibody, V domains shown)
VH: B2 VH with E16Q, I20L, N70S
VL: B1 VL with D1E, P40T, K45R, V58I
notes: as for B1
B14: CoDAH design C4 VH/C3 Vκ (antibody, V domains shown)
VH: B2 VH with E16Q, I20L, N70S
VL: B1 VL with V3L, Q100A
notes: as for B1
B15: CoDAH design C3 VH/C5 Vκ (antibody, V domains shown)
VH: B1 VH with Q16E, K71V
VL: B1 VL with D1E, P40T, K45R, V58I
notes: as for B1
B16: CoDAH design C2 VH/C1 Vκ (antibody, V domains shown)
VH: B1 VH with K71V
VL: B1 VL with V9D, I10F, L11Q, S14T, G16K, R18K, F21I, S22T, Q100A
notes: as for B1
B17: CoDAH design C3 VH/C4 Vκ (antibody, V domains shown)
VH: B1 VH with Q16E, K71V
VL: B1 VL
notes: as for B1
B18: CoDAH design C1 VH/C2 Vκ (antibody, V domains shown)
VH: B1 VH
VL: B1 VL with I10F, S14T, R18K, F21I, S22T, Q100A
notes: as for B1
B19: CoDAH design C3 VH/C1 Vκ (antibody, V domains shown)
VH: B1 VH with Q16E, K71V
VL: B1 VL with V9D, I10F, L11Q, S14T, G16K, R18K, F21I, S22T, Q100A
notes: as for B1
B20: CoDAH design C2 VH/C2 Vκ (antibody, V domains shown)
VH: B1 VH with K71V
VL: B1 VL with I10F, S14T, R18K, F21I, S22T, Q100A
notes: as for B5
B21: CoDAH design C2 VH/C5 Vκ (antibody, V domains shown)
VH: B1 VH with K71V
VL: B1 VL with D1E, P40T, K45R, V58I
notes: as for B1
B22: CoDAH design C1 VH/C5 Vκ (antibody, V domains shown)
VH: B1 VH
VL: B1 VL with D1E, P40T, K45R, V58I
notes: as for B1
B23: CoDAH design C2 VH/C3 Vκ (antibody, V domains shown)
VH: B1 VH with K71V
VL: B1 VL with V3L, Q100A
notes: Cross pair; Measured as full length IgG; also called C3 Vκ/C2 VH
B24: CoDAH design C3 VH/C3 Vκ (antibody, V domains shown)
VH: B1 VH with Q16E, K71V
VL: B1 VL with V3L, Q100A
notes: as for B5
B25: CoDAH design C5 VH/C4 Vκ (antibody, V domains shown)
VH: B2 VH
VL: B1 VL
notes: as for B1

The binders below were run against T1, recombinant, soluble his tagged human EGFR (Sino Biologicals) (human, UniProt P00533 25-645) (assay: BLI (ForteBio Octet Red), IgG on protein A tips, 100 nM soluble EGFR;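 note: antibody binding to EGFR read out as on and off rates plus equilibrium affinity, calculated with the Octet instrument software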).
T1 construct: extracellular domain; also called human epidermal growth factor receptor; not shown: his tag

Binding result, binds:
B1, B2, B3, B4, B5, B6, B7, B8, B9, B10, B11, B12, B13, B14, B15, B16, B17, B18, B19, B20, B21, B22, B23, B24, B25

Source: US20200317792A1 (INSMED, published 2020)
